This note sets out measurements from patent publication US20210171613A1 (NATIONAL RESEARCH COUNCIL OF CANADA, published 2021).

The labels stand for the following.
B1: A26.8 VHH mutant D107N (VHH, not shown: small tags and cut ends)
VHH: QVKLEESGGGLVQAGGSLRLSCAASERTFSRYPVAWFRQAPGAEREFVAVISSTGTSTYYADSVKGRFTISRDNAKVTVYLQMNNLKREDTAVYFCAVNSQRTRLQNPNEYDYWGQGTQVTVSS
B2: A26.8 VHH mutant D107Y (VHH, not shown: small tags and cut ends)
VHH: B1 VHH with N107Y
B3: A26.8 VHH mutant D107R (VHH, not shown: small tags and cut ends)
VHH: B1 VHH with N107R
B4: A26.8 VHH mutant E110Q (VHH, not shown: small tags and cut ends)
VHH: B1 VHH with N107D, E110Q
B5: A26.8 VHH mutant R104W (VHH, not shown: small tags and cut ends)
VHH: B1 VHH with R104W, N107D
B6: A26.8-T103W (VHH, not shown: small tags and cut ends)
VHH: B1 VHH with T103W, N107D
B7: A26.8-T56R, T103M (VHH, not shown: small tags and cut ends)
VHH: B1 VHH with T56R, T103M, N107D
B8: A26.8-T56R, T103K (VHH, not shown: small tags and cut ends)
VHH: B1 VHH with T56R, T103K, N107D
B9: A26.8-T56R, Q101K, T103M (VHH, not shown: small tags and cut ends)
VHH: B1 VHH with T56R, Q101K, T103M, N107D
B10: A26.8 VHH mutant T54Y (VHH, not shown: small tags and cut ends)
VHH: B1 VHH with T54Y, N107D
B11: A26.8-T103M (VHH, not shown: small tags and cut ends)
VHH: B1 VHH with T103M, N107D
B12: A26.8 VHH mutant T54W (VHH, not shown: small tags and cut ends)
VHH: B1 VHH with T54W, N107D
B13: A26.8-T54R (VHH, not shown: small tags and cut ends)
VHH: B1 VHH with T54R, N107D
B14: A26.8-T56R, Q101K (VHH, not shown: small tags and cut ends)
VHH: B1 VHH with T56R, Q101K, N107D
B15: A26.8-Q101K,T103R (VHH, not shown: small tags and cut ends)
VHH: B1 VHH with Q101K, T103R, N107D
B16: A26.8-T56I (VHH, not shown: small tags and cut ends)
VHH: B1 VHH with T56I, N107D
B17: A26.8-T58K (VHH, not shown: small tags and cut ends)
VHH: B1 VHH with T58K, N107D
B18: A26.8-Q101K,T103M (VHH, not shown: small tags and cut ends)
VHH: B1 VHH with Q101K, T103M, N107D
B19: A26.8-T56R, Q101K, T103K (VHH, not shown: small tags and cut ends)
VHH: B1 VHH with T56R, Q101K, T103K, N107D
B20: A26.8-N109R (VHH, not shown: small tags and cut ends)
VHH: B1 VHH with N107D, N109R
B21: A26.8-Q101K,T103K (VHH, not shown: small tags and cut ends)
VHH: B1 VHH with Q101K, T103K, N107D

Numbering of substitutions follows the chain as printed. Numbers in names are those of the source. A value given as a limit tells only on which side of the number the result lay.

The target of the first assay is T1, Clostridium difficile toxin A (TcdA) (Clostridium difficile, UniProt P16154 1-2710).
T1 construct: mature; also called full-length TcdA
T1 sequence (P16154 whole entry): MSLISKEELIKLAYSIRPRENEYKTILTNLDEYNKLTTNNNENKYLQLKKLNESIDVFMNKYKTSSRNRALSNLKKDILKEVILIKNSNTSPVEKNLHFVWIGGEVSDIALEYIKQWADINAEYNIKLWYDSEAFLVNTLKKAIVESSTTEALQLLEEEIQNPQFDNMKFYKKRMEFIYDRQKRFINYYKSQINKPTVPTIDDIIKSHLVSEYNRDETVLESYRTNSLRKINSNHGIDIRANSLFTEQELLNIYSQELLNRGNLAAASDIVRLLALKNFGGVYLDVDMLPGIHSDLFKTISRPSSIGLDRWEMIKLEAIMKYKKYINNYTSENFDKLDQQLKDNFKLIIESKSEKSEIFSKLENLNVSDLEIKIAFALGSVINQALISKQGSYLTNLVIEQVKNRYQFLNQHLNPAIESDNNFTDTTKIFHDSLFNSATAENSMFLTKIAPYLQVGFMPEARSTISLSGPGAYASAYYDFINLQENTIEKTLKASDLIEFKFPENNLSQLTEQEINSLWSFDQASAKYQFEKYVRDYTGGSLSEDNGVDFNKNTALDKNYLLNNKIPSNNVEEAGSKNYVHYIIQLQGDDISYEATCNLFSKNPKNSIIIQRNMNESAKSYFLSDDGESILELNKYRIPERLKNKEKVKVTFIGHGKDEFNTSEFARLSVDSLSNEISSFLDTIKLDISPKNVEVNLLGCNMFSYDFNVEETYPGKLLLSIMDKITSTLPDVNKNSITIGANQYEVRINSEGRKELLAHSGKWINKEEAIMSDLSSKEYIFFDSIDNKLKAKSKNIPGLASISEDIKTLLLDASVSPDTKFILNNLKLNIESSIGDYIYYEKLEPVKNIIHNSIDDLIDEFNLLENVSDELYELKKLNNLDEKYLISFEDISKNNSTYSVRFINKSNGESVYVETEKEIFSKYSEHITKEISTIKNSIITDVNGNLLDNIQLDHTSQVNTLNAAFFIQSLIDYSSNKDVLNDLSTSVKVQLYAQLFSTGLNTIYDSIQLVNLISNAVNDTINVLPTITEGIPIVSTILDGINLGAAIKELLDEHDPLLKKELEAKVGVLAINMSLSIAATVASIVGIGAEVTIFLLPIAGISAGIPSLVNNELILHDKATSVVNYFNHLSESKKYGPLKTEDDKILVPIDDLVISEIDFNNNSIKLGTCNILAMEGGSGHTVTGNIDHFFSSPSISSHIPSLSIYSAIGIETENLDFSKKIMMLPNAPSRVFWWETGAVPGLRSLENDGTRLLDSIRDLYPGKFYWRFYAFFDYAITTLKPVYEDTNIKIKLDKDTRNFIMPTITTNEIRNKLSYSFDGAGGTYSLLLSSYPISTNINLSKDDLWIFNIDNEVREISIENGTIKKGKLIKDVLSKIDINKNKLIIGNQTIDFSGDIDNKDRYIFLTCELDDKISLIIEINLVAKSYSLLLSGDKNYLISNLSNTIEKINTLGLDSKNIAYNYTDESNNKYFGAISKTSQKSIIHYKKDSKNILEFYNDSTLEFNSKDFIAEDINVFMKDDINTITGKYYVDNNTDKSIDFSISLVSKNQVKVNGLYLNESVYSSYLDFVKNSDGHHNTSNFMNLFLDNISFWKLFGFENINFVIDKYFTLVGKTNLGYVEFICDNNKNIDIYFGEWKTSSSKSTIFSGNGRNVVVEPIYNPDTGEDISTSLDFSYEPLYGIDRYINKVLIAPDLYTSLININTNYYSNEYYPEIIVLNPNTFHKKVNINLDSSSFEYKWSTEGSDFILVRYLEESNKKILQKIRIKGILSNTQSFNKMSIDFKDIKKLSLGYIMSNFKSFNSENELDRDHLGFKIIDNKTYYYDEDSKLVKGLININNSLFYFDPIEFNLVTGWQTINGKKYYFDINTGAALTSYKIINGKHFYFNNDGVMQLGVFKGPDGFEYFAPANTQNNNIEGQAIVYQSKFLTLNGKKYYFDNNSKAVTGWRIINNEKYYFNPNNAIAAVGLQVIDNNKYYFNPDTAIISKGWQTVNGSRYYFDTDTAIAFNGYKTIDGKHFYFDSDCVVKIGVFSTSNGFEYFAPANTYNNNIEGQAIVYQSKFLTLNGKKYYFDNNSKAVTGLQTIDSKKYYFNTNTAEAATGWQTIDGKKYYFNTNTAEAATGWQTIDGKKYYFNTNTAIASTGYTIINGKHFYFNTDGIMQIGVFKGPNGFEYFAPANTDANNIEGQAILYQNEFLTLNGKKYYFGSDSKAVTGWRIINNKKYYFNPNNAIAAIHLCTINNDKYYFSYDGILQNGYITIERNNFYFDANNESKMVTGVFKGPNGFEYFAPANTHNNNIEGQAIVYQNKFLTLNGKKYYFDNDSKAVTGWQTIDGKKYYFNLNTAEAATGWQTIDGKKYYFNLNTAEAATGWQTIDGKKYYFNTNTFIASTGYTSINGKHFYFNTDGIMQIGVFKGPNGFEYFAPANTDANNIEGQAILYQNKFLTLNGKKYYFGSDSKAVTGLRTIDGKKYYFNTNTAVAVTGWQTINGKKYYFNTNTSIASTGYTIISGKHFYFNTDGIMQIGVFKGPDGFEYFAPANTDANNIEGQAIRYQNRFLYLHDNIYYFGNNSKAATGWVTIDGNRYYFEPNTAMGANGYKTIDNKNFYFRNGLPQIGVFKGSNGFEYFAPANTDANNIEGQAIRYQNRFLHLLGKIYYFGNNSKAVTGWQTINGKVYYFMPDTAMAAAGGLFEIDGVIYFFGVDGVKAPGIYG
The experiment in a line: SPR on immobilized TcdA. The method, then:
(§1) Before surface plasmon resonance (SPR) binding experiments, IMAC-purified VHHs were subjected to de-salting and further purification by size-exclusion chromatography (SEC). Approximately 500 μg of each VHH was injected over a Superdex 75 Increase 10/300 GL SEC column (GE Healthcare) in Biacore running buffer HBS-EP (10 mM HEPES pH 7.4, 150 mM NaCl, 3 mM EDTA, 0.005% (v/v) P20; GE Healthcare) under the control of an ÄKTA FPLC at 0.8 mL/min. Monomeric VHH fractions were collected and analyzed for binding to TcdA using a Biacore 3000 SPR instrument (GE Healthcare). Approximately 4,500 resonance units (RUs) of TcdA (List Biological Laboratories, Campbell, Calif.) were immobilized on a CM5 sensor chip (GE Healthcare) using the conditions previously described (Hussack et al, 2011). HBS-EP running buffer was used for all binding studies and regeneration of TcdA surfaces. Next, various dilution ranges of VHHs (as low as 10 nM-0.5 nM to as high as 5 μM-50 nM) were injected over immobilized TcdA at a flow rate of 40 μL/min with 120 s contact time and 600 s dissociation. Reference-subtracted sensorgrams were analyzed with BIAevaluation software (GE Healthcare) and fit to a 1:1 binding model. In cases where rapid kₒₙ and koff rate constants were observed, equilibrium dissociation constants (KDs) were determined by steady-state analysis.
The location of these mutations relative to the antigen epitope is illustrated in FIG. 2C.
Regarding B1, the “fold decrease in affinity relative to parent A26.8 VHH” value is no more than 2.5 fold.

In the case of B2, the “fold decrease in affinity relative to parent A26.8 VHH” value is no more than 2.5 fold.

As for B3, the “fold decrease in affinity relative to parent A26.8 VHH” value is no more than 2.5 fold.

For the molecule B4, the “fold decrease in affinity relative to parent A26.8 VHH” value was no more than 2.5 fold.

As to B5, the “fold decrease in affinity relative to parent A26.8 VHH” value is roughly 10 fold.

Another assay concerns the target T1, Clostridium difficile toxin A (TcdA). The experiment in a line: SPR (Biacore 3000), VHH over immobilized TcdA, 1:1 fit. The procedure: as §1
Background: In SPR one partner is held on a chip, and binding of the other changes the refractive index at the surface.
As for B1, the Kd is 21.3 nM, the off-rate constant (koff) turned out to be 0.0402 s⁻¹ and the association rate constant (kon) is 1.92e+06 M⁻¹ s⁻¹.

B2 gave a dissociation constant Kd of 44 nM, a koff of 0.0711 s⁻¹ and a kon of 1.62e+06 M⁻¹ s⁻¹.

B6 came in with an equilibrium dissociation constant (Kd) of 16.3 nM, an off-rate constant (koff) of 0.0361 s⁻¹ and a kon of 2.39e+06 M⁻¹ s⁻¹.

In the case of B7, the equilibrium dissociation constant (Kd) amounted to 4.84 nM, the off-rate constant (koff) amounted to 0.0304 s⁻¹ and the kon is 6.42e+06 M⁻¹ s⁻¹.

In the case of B8, the dissociation constant (Kd) turned out to be 3.44 nM, the koff amounted to 0.0291 s⁻¹ and the on-rate constant (kon) was 8.61e+06 M⁻¹ s⁻¹.

B9: binding was characterised by a dissociation constant (Kd) of 2.87 nM, the dissociation rate constant (koff) amounted to 0.0296 s⁻¹ and the on-rate constant (kon) was 1.04e+07 M⁻¹ s⁻¹.

Turning to B10, the equilibrium dissociation constant (Kd) was determined as 38.9 nM, the koff worked out at 0.0694 s⁻¹ and the kon amounted to 1.81e+06 M⁻¹ s⁻¹.

B3 returned a Kd of 19 nM, a koff of 0.0259 s⁻¹ and a kon of 1.39e+06 M⁻¹ s⁻¹.

Turning to B11, the affinity, expressed as Kd, was 13.7 nM; the off-rate (koff) stood at 0.0237 s⁻¹; the kon amounted to 1.77e+06 M⁻¹ s⁻¹.

In the case of B4, the Kd came to 33.6 nM, the koff came to 0.0699 s⁻¹ and the association rate constant (kon) was found to be 2.08e+06 M⁻¹ s⁻¹.

In turn, B12 gave a Kd of 35 nM, a koff of 0.0561 s⁻¹ and a kon of 1.61e+06 M⁻¹ s⁻¹.

In the case of B13, binding was characterised by a dissociation constant (Kd) of 13.2 nM, the koff was found to be 0.044 s⁻¹ and the association rate constant (kon) turned out to be 3.55e+06 M⁻¹ s⁻¹.

B5 showed a Kd of 165 nM, a koff of 0.0548 s⁻¹ and a kon of 330000 M⁻¹ s⁻¹.

B14 showed an equilibrium dissociation constant (Kd) of 4.13 nM, a koff of 0.0497 s⁻¹ and a kon of 1.24e+07 M⁻¹ s⁻¹.

Molecule B15 registered a dissociation constant (Kd) of 4.2 nM, a koff of 0.0226 s⁻¹ and a kon of 5.45e+06 M⁻¹ s⁻¹.

On to B16, for which binding was characterised by a dissociation constant (Kd) of 13.6 nM, the koff came out at 0.0262 s⁻¹ and the on-rate constant (kon) was 1.94e+06 M⁻¹ s⁻¹.

B17 returned an equilibrium dissociation constant (Kd) of 13.5 nM, an off-rate (koff) of 0.0327 s⁻¹ and a kon of 2.47e+06 M⁻¹ s⁻¹.

On to B18, for which the Kd came out at 8.02 nM, the koff turned out to be 0.0265 s⁻¹ and the kon amounted to 3.31e+06 M⁻¹ s⁻¹.

The molecule B19 displayed a Kd of 3.19 nM, a koff of 0.0467 s⁻¹ and a kon of 1.47e+07 M⁻¹ s⁻¹.

B20: the Kd stood at 13.9 nM, the off-rate (koff) was found to be 0.0268 s⁻¹ and the kon was 1.95e+06 M⁻¹ s⁻¹.

Molecule B21 had an equilibrium dissociation constant (Kd) of 8.21 nM, a koff of 0.0396 s⁻¹ and a kon of 4.96e+06 M⁻¹ s⁻¹.

Another assay shares this target. The experiment in a line: SPR (Biacore 3000), VHH over immobilized TcdA; ratio of parent KD to mutant KD. The procedure:
as §1
B1: the “KD^WT/KD” value is 0.9.

Consider B2, for which the “KD^WT/KD” value worked out at 0.4.

Take B6: the “KD^WT/KD” value was 1.1.

For the molecule B7, the “KD^WT/KD” value turned out to be 3.9.

For B8, the “KD^WT/KD” value was 5.4.

As to B9, the “KD^WT/KD” value amounted to 6.5.

Turning to B10, the “KD^WT/KD” value stood at 0.5.

For B3, the “KD^WT/KD” value amounted to 1.

Regarding B11, the “KD^WT/KD” value stood at 1.4.

With B4, the “KD^WT/KD” value was 0.6.

As for B12, the “KD^WT/KD” value was found to be 0.5.

Regarding B13, the “KD^WT/KD” value is 1.4.

Regarding B5, the “KD^WT/KD” value came to 0.1.

For the molecule B14, the “KD^WT/KD” value was found to be 4.5.

With B15, the “KD^WT/KD” value turned out to be 4.5.

Take B16: the “KD^WT/KD” value was 1.4.

Turning to B17, the “KD^WT/KD” value was determined as 1.4.

On to B18, for which the “KD^WT/KD” value was 2.3.

B19: the “KD^WT/KD” value was 5.9.

Regarding B20, the “KD^WT/KD” value came to 1.3.

On to B21, for which the “KD^WT/KD” value amounted to 2.3.

Another assay has the same target. The experiment in a line: SPR (Biacore 3000), VHH over immobilized TcdA; binding free energy difference relative to parent VHH. The method, then:
as §1
On to B1, for which the ΔΔG worked out at 0.08 kcal/mol.

For B2, the ΔΔG was found to be 0.5 kcal/mol.

Turning to B6, the ΔΔG was -0.08 kcal/mol.

Take B7: the ΔΔG is -0.79 kcal/mol.

Take B8: the ΔΔG was -0.99 kcal/mol.

With B9, the ΔΔG is -1.1 kcal/mol.

B10: the ΔΔG stood at 0.43 kcal/mol.

In the case of B3, the ΔΔG is 0.01 kcal/mol.

B11: the ΔΔG was -0.18 kcal/mol.

With B4, the ΔΔG is 0.34 kcal/mol.

With B12, the ΔΔG worked out at 0.37 kcal/mol.

For B13, the ΔΔG is -0.2 kcal/mol.

On to B5, for which the ΔΔG came to 1.27 kcal/mol.

For the molecule B14, the ΔΔG is -0.88 kcal/mol.

Take B15: the ΔΔG is -0.87 kcal/mol.

On to B16, for which the ΔΔG is -0.19 kcal/mol.

Turning to B17, the ΔΔG is -0.19 kcal/mol.

For the molecule B18, the ΔΔG was -0.49 kcal/mol.

With B19, the ΔΔG was -1.03 kcal/mol.

B20: the ΔΔG was -0.17 kcal/mol.

Consider B21, for which the ΔΔG was -0.48 kcal/mol.

As a reminder, the Kd is the concentration at which binding is half-saturated. High values mean weaker binding, low ones tighter binding. The koff is a measure of how fast the partners let go of each other. A higher koff goes with fast dissociation. The kon is the rate constant with which the complex forms. A high value points to fast association.
